The results in this text go back to the supplement of paper PMC9112550, “Optimization of the antimicrobial peptide Bac7 by deep mutational scanning” (BMC Biology, 2022).

The test system of the data set is Escherichia coli TOP10. In words: shrunken log2 fold change of peptide-encoding DNA abundance (4.5 h post-induction vs induction); higher = less antimicrobial activity (less host growth inhibition). The settings on record: time post-induction: 4.5 h; library: site-saturation at positions 5, 18, 19, 20.
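Further: peptides expressed intracellularly from a pBAD plasmid library in pooled LB shake-flask culture, induced with 0.3% L-arabinose, DNA abundance read by NGS, three biological replicates, DESeq2 with apeglm shrinkage.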

For RRIRARPPRLPRPRPRPWTFPRP, the “shrunken log2 fold change” value was -0.0754.
The same measure for RRIRWRPPRLPRPRPRPCGQPRP: 0.137; for RRIRARPPRLPRPRPRPATIPRP: 0.496.
The same measure for RRIRPRPPRLPRPRPRPTWTPRP: 0.071.
In the case of RRIRARPPRLPRPRPRPSKFPRP it was -0.163; in that of RRIRKRPPRLPRPRPRPCRTPRP, 0.0438; in that of RRIRYRPPRLPRPRPRPSFIPRP, -0.851.
Turning to RRIRHRPPRLPRPRPRPRDRPRP, the “shrunken log2 fold change” value amounted to 0.0898.
In the case of RRIRGRPPRLPRPRPRPWSGPRP it was 0.0316; in that of RRIRYRPPRLPRPRPRPELCPRP, -0.403.
The same measure for RRIRRRPPRLPRPRPRPYLAPRP: -0.185.
Consider RRIRCRPPRLPRPRPRPRRMPRP, for which the “shrunken log2 fold change” value is 0.00514.
The same measure for RRIRARPPRLPRPRPRPECDPRP: 1.12; for RRIRFRPPRLPRPRPRPKNKPRP: -0.384; for RRIRERPPRLPRPRPRPKIPPRP: -0.136.
The same measure for RRIRPRPPRLPRPRPRPVAKPRP: 0.236; for RRIRWRPPRLPRPRPRPLGYPRP: -0.24; for RRIRTRPPRLPRPRPRPWSWPRP: -0.0374.
In the case of RRIRQRPPRLPRPRPRPIYDPRP it was -0.213; in that of RRIRARPPRLPRPRPRPMIDPRP, 0.535.
On to RRIRSRPPRLPRPRPRPFQEPRP, for which the “shrunken log2 fold change” value is -0.0528.
In the case of RRIRPRPPRLPRPRPRPVDVPRP it was -0.0323; in that of RRIRYRPPRLPRPRPRPWDSPRP, -0.00191; in that of RRIRYRPPRLPRPRPRPENRPRP, 0.0112.
In the case of RRIRNRPPRLPRPRPRPTTCPRP it was -0.275.
With RRIRQRPPRLPRPRPRPENKPRP, the “shrunken log2 fold change” value was -0.578.
The same measure for RRIRARPPRLPRPRPRPWIPPRP: -0.161.
With RRIRMRPPRLPRPRPRPHTPPRP, the “shrunken log2 fold change” value came to 0.137.
In the case of RRIRSRPPRLPRPRPRPNTAPRP it was -0.0399; in that of RRIRNRPPRLPRPRPRPMFNPRP, -0.868; in that of RRIRNRPPRLPRPRPRPTGKPRP, -0.0851.
For the sequence RRIRSRPPRLPRPRPRPAVWPRP, the “shrunken log2 fold change” value came to 0.765.
On to RRIRPRPPRLPRPRPRPTIFPRP, for which the “shrunken log2 fold change” value turned out to be 0.0842.
In the case of RRIRWRPPRLPRPRPRPWSKPRP it was -0.191; in that of RRIRKRPPRLPRPRPRPEEPPRP, 3.09; in that of RRIRNRPPRLPRPRPRPAYWPRP, 0.0638.
The same measure for RRIRYRPPRLPRPRPRPWCFPRP: -0.369; for RRIRERPPRLPRPRPRPGMRPRP: 0.471.
In the case of RRIRVRPPRLPRPRPRPSWGPRP it was 0.0232.
In the case of RRIRDRPPRLPRPRPRPSCCPRP, the “shrunken log2 fold change” value was 1.57.
The same measure for RRIRHRPPRLPRPRPRPKISPRP: -0.395; for RRIRARPPRLPRPRPRPTSCPRP: -0.15; for RRIRERPPRLPRPRPRPIEVPRP: -0.00196.
On to RRIRFRPPRLPRPRPRPRKMPRP, for which the “shrunken log2 fold change” value stood at 0.0208.
The same measure for RRIRDRPPRLPRPRPRPDVLPRP: 0.0169; for RRIRQRPPRLPRPRPRPEFMPRP: -0.0743.
The same measure for RRIRYRPPRLPRPRPRPKSLPRP: -0.204; for RRIRCRPPRLPRPRPRPQEEPRP: -0.0124.
Turning to RRIRMRPPRLPRPRPRPNIKPRP, the “shrunken log2 fold change” value is -0.266.
In the case of RRIRHRPPRLPRPRPRPMKKPRP it was -0.0202.
In the case of RRIRERPPRLPRPRPRPDSMPRP it was -0.076; in that of RRIRFRPPRLPRPRPRPDFLPRP, -0.453; in that of RRIRWRPPRLPRPRPRPAIHPRP, 0.039.
The same measure for RRIRFRPPRLPRPRPRPMFCPRP: -0.111; for RRIRWRPPRLPRPRPRPKMGPRP: 0.0381.
On to RRIRCRPPRLPRPRPRPNKDPRP, for which the “shrunken log2 fold change” value was -0.534.
Regarding RRIRSRPPRLPRPRPRPQCLPRP, the “shrunken log2 fold change” value was -0.208.
The same measure for RRIRERPPRLPRPRPRPCQEPRP: -0.181.
In the case of RRIRHRPPRLPRPRPRPWAKPRP it was -0.235; in that of RRIRKRPPRLPRPRPRPRAQPRP, 0.7; in that of RRIRERPPRLPRPRPRPRAHPRP, 0.352.
In the case of RRIRQRPPRLPRPRPRPCQTPRP it was 0.00707; in that of RRIRKRPPRLPRPRPRPINPPRP, 0.0583.
Turning to RRIRTRPPRLPRPRPRPEQKPRP, the “shrunken log2 fold change” value is 0.154.
In the case of RRIRKRPPRLPRPRPRPGNHPRP it was 0.0875; in that of RRIRGRPPRLPRPRPRPVCVPRP, 0.891; in that of RRIRRRPPRLPRPRPRPCIPPRP, -0.867.
As for RRIRYRPPRLPRPRPRPIKYPRP, the “shrunken log2 fold change” value is -0.0893.
The same measure for RRIRHRPPRLPRPRPRPMTQPRP: -0.24; for RRIRARPPRLPRPRPRPTCKPRP: 0.0463.
In the case of RRIRNRPPRLPRPRPRPDKLPRP it was -0.168.
The same measure for RRIRFRPPRLPRPRPRPNVDPRP: -0.0445.
Regarding RRIRRRPPRLPRPRPRPGQAPRP, the “shrunken log2 fold change” value stood at 0.0103.
In the case of RRIRYRPPRLPRPRPRPWDCPRP it was -0.00865.
The same measure for RRIRFRPPRLPRPRPRPTRNPRP: 0.184.
The same measure for RRIRRRPPRLPRPRPRPQQWPRP: 0.0704.
On to RRIRARPPRLPRPRPRPDQNPRP, for which the “shrunken log2 fold change” value worked out at 0.489.
In the case of RRIRERPPRLPRPRPRPQQCPRP it was -0.0909; in that of RRIRTRPPRLPRPRPRPVNKPRP, 0.0243.
The same measure for RRIRIRPPRLPRPRPRPGMLPRP: 0.0213; for RRIRYRPPRLPRPRPRPHGPPRP: -0.239; for RRIRKRPPRLPRPRPRPHYNPRP: -0.428.
The same measure for RRIRSRPPRLPRPRPRPIRNPRP: -0.379.
Regarding RRIRMRPPRLPRPRPRPSRCPRP, the “shrunken log2 fold change” value turned out to be 0.274.
Consider RRIRERPPRLPRPRPRPKISPRP, for which the “shrunken log2 fold change” value was 0.000121.
Consider RRIRVRPPRLPRPRPRPLYEPRP, for which the “shrunken log2 fold change” value was -0.168.
The same measure for RRIRQRPPRLPRPRPRPLFMPRP: -1.12.
The same measure for RRIRGRPPRLPRPRPRPVPVPRP: 0.629; for RRIRDRPPRLPRPRPRPALWPRP: 1.05; for RRIRGRPPRLPRPRPRPWAAPRP: 0.539.
In the case of RRIRIRPPRLPRPRPRPYRRPRP it was -0.648; in that of RRIRSRPPRLPRPRPRPCYYPRP, -0.571.
Consider RRIRPRPPRLPRPRPRPSFAPRP, for which the “shrunken log2 fold change” value is 0.258.
The same measure for RRIRARPPRLPRPRPRPGVAPRP: 1.05; for RRIRKRPPRLPRPRPRPDAKPRP: 0.165; for RRIRVRPPRLPRPRPRPTNVPRP: -0.374.
The same measure for RRIRARPPRLPRPRPRPNTGPRP: -0.0394.
Regarding RRIRIRPPRLPRPRPRPSELPRP, the “shrunken log2 fold change” value was -0.186.
In the case of RRIRTRPPRLPRPRPRPVWNPRP it was -0.117.
For the sequence RRIRVRPPRLPRPRPRPDVLPRP, the “shrunken log2 fold change” value turned out to be 0.00338.
With RRIRMRPPRLPRPRPRPLVVPRP, the “shrunken log2 fold change” value is 0.0644.
For the sequence RRIRNRPPRLPRPRPRPNQSPRP, the “shrunken log2 fold change” value was -0.157.
With RRIRIRPPRLPRPRPRPHPRPRP, the “shrunken log2 fold change” value was 0.192.
Turning to RRIRERPPRLPRPRPRPMKWPRP, the “shrunken log2 fold change” value is -0.0404.
The same measure for RRIRGRPPRLPRPRPRPFMEPRP: -0.114; for RRIRGRPPRLPRPRPRPGMAPRP: 0.877.
In the case of RRIRVRPPRLPRPRPRPAIKPRP it was -0.202.
On to RRIRCRPPRLPRPRPRPDSYPRP, for which the “shrunken log2 fold change” value is -0.286.
For the sequence RRIRCRPPRLPRPRPRPLHAPRP, the “shrunken log2 fold change” value is 0.369.
In the case of RRIRVRPPRLPRPRPRPGGMPRP it was 0.0665.
As to RRIRARPPRLPRPRPRPAIIPRP, the “shrunken log2 fold change” value is 0.101.
For the sequence RRIRQRPPRLPRPRPRPLPYPRP, the “shrunken log2 fold change” value was -0.202.
The same measure for RRIRVRPPRLPRPRPRPANHPRP: -0.0489; for RRIRKRPPRLPRPRPRPFSWPRP: 0.0937.
In the case of RRIRTRPPRLPRPRPRPRQYPRP it was -0.302.
The same measure for RRIRFRPPRLPRPRPRPMRAPRP: 1.02; for RRIRSRPPRLPRPRPRPKPQPRP: 0.524; for RRIRNRPPRLPRPRPRPTAPPRP: 0.517.
Regarding RRIRPRPPRLPRPRPRPSHMPRP, the “shrunken log2 fold change” value is -0.466.
For the sequence RRIRRRPPRLPRPRPRPCGTPRP, the “shrunken log2 fold change” value is 0.363.
In the case of RRIRNRPPRLPRPRPRPMFWPRP it was 0.0282; in that of RRIRARPPRLPRPRPRPQYEPRP, 0.181.
The same measure for RRIRARPPRLPRPRPRPDHPPRP: 0.297; for RRIRQRPPRLPRPRPRPMYSPRP: -0.746; for RRIRLRPPRLPRPRPRPLYCPRP: -0.366.
